These results are taken from the RNAGym collection of RNA variant scans (doi:10.7554/elife.90254).

B1: OR4K15 (parent)
chain: GUUAACGGUCAUAGGCCAUGGAAACUAGGAGCACCAUUUCGCUGCCAGUGAAGAAAUGAACAAAGAAAAUCUGGGCCAGGCAGGCAUCAAAAGAAAUAGUCUUGCGCUCAACCAGAAAGUCUGUAAUCAUUUUAAGGGUA

Variants of B1 are the subject of this data set. Kind of data set: self-cleavage, relative activity (ratio to wild type); higher = more cleavage; in vitro, sequencing; the parent is a self-cleaving ribozyme.
For the variant A60U U102C, the self-cleavage stood at 2.8.
For A62C A78U the value was 0.46.
On to A63U U120C, for which the self-cleavage is 1.25.
As for A62C A86G, the self-cleavage was found to be 1.15.
A60G A94U: the self-cleavage turned out to be 2.32.
For A62G U127A, the self-cleavage stood at 1.79.
On to A62C U87C, for which the self-cleavage stood at 1.51.
Consider A60G A67C, for which the self-cleavage stood at 0.77.
In the case of A60G A67U, the self-cleavage is 2.01.
On to C61U A98G, for which the self-cleavage was found to be 0.45.
As for A59U U102C, the self-cleavage was determined as 1.23.
For A60G A64U the value was 1.46.
With A63G A134G, the self-cleavage is 1.47.
For the variant A60G A96U, the self-cleavage amounted to 1.96.
Take A60G A96G: the self-cleavage is 1.47.
For A62G C112G the value was 0; for A60G C112U, 0.02.
For A60G A110U the value was 1.3; for A60G A110G, 0.13.
With A63G U131C, the self-cleavage is 1.2.
For the variant A63G U131A, the self-cleavage is 0.45.
Consider A60U A94U, for which the self-cleavage came to 1.82.
The same measure for A62G A68G: 1.12.
Consider A62U, for which the self-cleavage was 1.53.
For the variant A62G, the self-cleavage was found to be 1.23.
Turning to A62C, the self-cleavage was 1.64.
On to A63G A98U, for which the self-cleavage worked out at 2.55.
A60G A91G: the self-cleavage worked out at 0.99.
As to A60G A91U, the self-cleavage came to 1.31.
Turning to A63G G106U, the self-cleavage came to 0.02.
Take A60G C81U: the self-cleavage came out at 0.21.
For A64C C105U, the self-cleavage came out at 0.17.
On to A63C G74U, for which the self-cleavage turned out to be 0.15.
Turning to A64C A94G, the self-cleavage turned out to be 2.25.
For A60G C128G the value was 0.87; for A62G A91U, 1.61.
A62G A69U: the self-cleavage came out at 1.87.
On to A62G A69G, for which the self-cleavage came out at 0.68.
In the case of A63G A92U, the self-cleavage turned out to be 1.35.
In the case of A63G A86U, the self-cleavage was 2.04.
A63U U132C: the self-cleavage turned out to be 1.98.
As to A62G U100C, the self-cleavage was 2.17.
A62G U100A: the self-cleavage was 1.12.
A62C A134G: the self-cleavage turned out to be 1.15.
In the case of A63C G79A, the self-cleavage came out at 0.09.
Regarding A63G A116C, the self-cleavage worked out at 0.13.
With A63G A116U, the self-cleavage came out at 0.57.
A63U A94U: the self-cleavage turned out to be 1.96.
On to A59U U130C, for which the self-cleavage worked out at 1.05.
As to A63U A134G, the self-cleavage turned out to be 0.32.
As to A60U A91G, the self-cleavage worked out at 1.34.
A63U A86G: the self-cleavage was 2.75.
Turning to A62C G83A, the self-cleavage is 2.18.
Turning to A60U G104A, the self-cleavage is 0.03.
The same measure for A62G C128U: 1.13.
For A63G A66U the value was 1.49; for A62G A96G, 1.53.
For A60C G65A the value was 0.54; for C61G A110G, 0.41; for A60G U103C, 0.78.
For the variant A60G U103G, the self-cleavage worked out at 0.05.
C61U G106U: the self-cleavage was 0.04.
Regarding A62C A63G, the self-cleavage worked out at 1.55.
As to A62G U120A, the self-cleavage was 1.1.
Turning to A60U A89G, the self-cleavage was determined as 1.73.
Regarding A60U A89U, the self-cleavage stood at 1.68.
Regarding A64C A116G, the self-cleavage is 0.83.
As for A60U G83A, the self-cleavage is 1.65.
In the case of A60G U130G, the self-cleavage was determined as 1.18.
For the variant A60G U130C, the self-cleavage turned out to be 1.07.
Regarding A60U A117G, the self-cleavage is 1.84.
Turning to A59U U127G, the self-cleavage was 1.12.
For A59U U127C the value was 0.28.
With A63C A140G, the self-cleavage is 1.96.
With A60G G123A, the self-cleavage is 1.05.
For A60C A82G, the self-cleavage stood at 0.28.
Regarding A63U U103C, the self-cleavage worked out at 1.58.
As to A60C U108A, the self-cleavage was determined as 0.04.
As to C61U A116G, the self-cleavage was determined as 0.39.
The same measure for A63G A117G: 1.69.
The same measure for A60G A69G: 0.19; for A62G A78G: 0.27.
As to A64C A95G, the self-cleavage was found to be 2.58.
Consider A60G A86U, for which the self-cleavage turned out to be 1.44.
For A60G A134G the value was 0.69; for A60U A67G, 2.09.
Regarding A62G A92U, the self-cleavage is 1.01.
For A60G U97C, the self-cleavage turned out to be 1.05.
On to A60C A111G, for which the self-cleavage amounted to 0.
Regarding A62G U132A, the self-cleavage came out at 1.9.
A62U A78G: the self-cleavage came to 0.28.
Turning to A62U A78U, the self-cleavage was 0.33.
On to A60U U70C, for which the self-cleavage came out at 1.72.
Consider A63G U70G, for which the self-cleavage was found to be 1.56.
Turning to A63G U70A, the self-cleavage was 1.47.
With A63G U70C, the self-cleavage is 1.08.
For C61U C85U, the self-cleavage was found to be 0.95.
With A60G G136C, the self-cleavage came to 0.72.
Consider A62C A92G, for which the self-cleavage is 1.58.
For the variant A63U A98G, the self-cleavage was determined as 0.8.
As to A60U A116G, the self-cleavage was 1.37.
The same measure for A62G U131C: 1.29; for A60C A63G: 2.15.
As for A63G C85U, the self-cleavage came out at 1.21.
Take A60G A126G: the self-cleavage came to 0.27.
A63G A89U: the self-cleavage stood at 1.13.
For A63G A89G the value was 1.89; for A64C G75C, 0.21; for A60C U120C, 0.98.
A62U U103C: the self-cleavage is 1.23.
As to A62U U103G, the self-cleavage stood at 0.07.
For C61U G136A the value was 2.1; for A63G A110U, 1.88; for A63G A110C, 0.38.
With A63G A110G, the self-cleavage came out at 0.15.
For A63G A64U, the self-cleavage came to 1.62.
Regarding A63G A64G, the self-cleavage was found to be 1.37.
For A62G U72G the value was 0.22; for A62G U72A, 0.18; for A63G U97C, 2.55.
For A62G A140G, the self-cleavage amounted to 1.36.
For A60G U139A the value was 1.12.
Take A60G U139C: the self-cleavage was 0.47.
For A62G A118G, the self-cleavage was found to be 1.01.
With A62G A118U, the self-cleavage was found to be 0.73.
The same measure for A60G A111G: 0.03; for A60G A111U: 0.11; for A64C C76U: 0.26.
The same measure for C61G A62U: 1.87.
As for C61U A117G, the self-cleavage came to 1.54.
As to C61U A82G, the self-cleavage came out at 0.28.
The same measure for A63C A126U: 1.62; for A63C A126G: 0.99.
On to A59U U124C, for which the self-cleavage stood at 0.69.
Turning to A59U U124A, the self-cleavage came out at 0.51.
For A60U U130C the value was 1.22; for A60G A135G, 1.71; for A62G C105U, 0.14.
Consider A60G G79C, for which the self-cleavage worked out at 0.07.
Consider A63U A96G, for which the self-cleavage turned out to be 1.74.
As to A64C A140U, the self-cleavage was 1.86.
Take A60G A62G: the self-cleavage was 1.
Consider A60G A62U, for which the self-cleavage amounted to 1.51.
Regarding A60G A92G, the self-cleavage came out at 0.87.
As to A63U U100C, the self-cleavage was 2.04.
The same measure for A63G A135G: 1.35; for A63G A135U: 0.04.
Regarding A63U U127C, the self-cleavage stood at 1.25.
On to A59U U108C, for which the self-cleavage is 0.02.
Take A63U U72C: the self-cleavage amounted to 0.41.
In the case of A60G A98U, the self-cleavage stood at 2.21.
On to A60G A68U, for which the self-cleavage amounted to 1.38.
In the case of A60G A68G, the self-cleavage worked out at 1.31.
Take A64G: the self-cleavage worked out at 1.2.
A64C: the self-cleavage is 1.69.
For the variant A63G A96G, the self-cleavage is 1.4.
As to A64C G137A, the self-cleavage is 1.49.
The same measure for A62U A110U: 1.27; for A62U G136A: 1.59; for A63U A118G: 1.71.
Take A62G U122A: the self-cleavage was 1.07.
Consider A62G A86U, for which the self-cleavage was 2.08.
Turning to A62U U100C, the self-cleavage came out at 2.34.
As to A62U A89G, the self-cleavage came out at 1.95.
With A62U A89U, the self-cleavage was found to be 1.93.
Consider A60U A95G, for which the self-cleavage turned out to be 1.6.
For A60G A118U, the self-cleavage worked out at 0.79.
